Measurements taken from publication PMC6314547 (The Journal of Cell Biology, 2019).

Target: the molecule itself
Assay: SEC-MALS

B1: FAM92A1 BAR domain (1–219 aa) (domain or fragment, UniProt A1XBS5 1-219, looked up)
chain: MMRRTLENRNAQTKQLQTAVSNVEKHFGELCQIFAAYVRKTARLRDKADLLVNEINAYAATETPHLKLGLMNFADEFAKLQDYRQAEVERLEAKVVEPLKTYGTIVKMKRDDLKATLTARNREAKQLTQLERTRQRNPSDRHVISQAETELQRAAMDASRTSRHLEETINNFERQKMKDIKTIFSEFITIEMLFHGKALEVYTAAYQNIQNIDEDEDLE
  stoichiometry N: 2
